Measurements as given in paper PMC5071332.

Assays:
Test in all cases: immunostaining of cells or tissue; cell-surface binding assay: HEK293T cells expressing WT or mutant HA-tagged Slitrks incubated with 10 μg/ml control IgC or Ig-PTPδ; immunofluorescence imaging of Ig-fusion proteins and HA; percentage of cells exhibiting binding
[1] = target: HA-tagged Slitrk1[R584K] (human) (UniProt Q96PX8)
[2] = target: HA-tagged Slitrk1[S593G] (human) (UniProt Q96PX8)
[3] = target: HA-tagged Slitrk1[T418S] (human) (UniProt Q96PX8)
[4] = target: HA-tagged full-length Slitrk2 wild type (human) (UniProt Q9H156)
[5] = target: HA-tagged Slitrk1[N400I] (human) (UniProt Q96PX8)
[6] = target: HA-tagged Slitrk4[I578V] (human) (UniProt Q8IW52)
[7] = target: HA-tagged full-length Slitrk4 wild type (human) (UniProt Q8IW52)
[8] = target: HA-tagged Slitrk2[V89M] (human) (UniProt Q9H156)
[9] = target: HA-tagged Slitrk2[L626F] (human) (UniProt Q9H156)
[10] = target: HA-tagged Slitrk4[V206I] (human) (UniProt Q8IW52)
[11] = target: HA-tagged Slitrk2[S549F] (human) (UniProt Q9H156)
[12] = target: HA-tagged Slitrk2[R32L] (human) (UniProt Q9H156)
[13] = target: HA-tagged full-length Slitrk1 wild type (human) (UniProt Q96PX8)
[14] = target: HA-tagged Slitrk2[S601P] (human) (UniProt Q9H156)

Substance: recombinant Ig-fusion protein of PTPδ (IgC-PTPδ) (from UniProt P23468 21-1912) (Fc fusion)
- percentage of cells exhibiting the binding of Ig-PTPδ [1]: 62%
- percentage of cells exhibiting the binding of Ig-PTPδ [2]: 68.7%
- percentage of cells exhibiting the binding of Ig-PTPδ [3]: 41%
- percentage of cells exhibiting the binding of Ig-PTPδ [4]: 71%
- percentage of cells exhibiting the binding of Ig-PTPδ [5]: 32%
- percentage of cells exhibiting the binding of Ig-PTPδ [6]: 22.2%
- percentage of cells exhibiting the binding of Ig-PTPδ [7]: 81%
- percentage of cells exhibiting the binding of Ig-PTPδ [8]: 81%
- percentage of cells exhibiting the binding of Ig-PTPδ [9]: 76%
- percentage of cells exhibiting the binding of Ig-PTPδ [10]: 24%
- percentage of cells exhibiting the binding of Ig-PTPδ [11]: 68.8%
- percentage of cells exhibiting the binding of Ig-PTPδ [12]: 82%
- percentage of cells exhibiting the binding of Ig-PTPδ [13]: 66.7%
- percentage of cells exhibiting the binding of Ig-PTPδ [14]: 80%
